Assay results from patent US20260266838.

Biological target: T1, Recombinant CC16 (uteroglobin SCGB1A1), P11684
T1 chain: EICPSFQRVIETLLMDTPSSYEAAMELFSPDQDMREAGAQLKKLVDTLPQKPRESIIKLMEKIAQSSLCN

B1: native human neutrophil elastase (protein)
chain: IVGGRRARPHAWPFMVSLQLRGGHFCGATLIAPNFVMSAAHCVANVNVRAVRVVLGAHNLSRREPTRQVFAVQRIFENGYDPVNLLNDIVILQLNGSATINANVQVAQLPAQGRRLGNGVQCLAMGWGLLGRNRGIASVLQELNVTVVTSLCRRSNVCTLVRGRQAGVCFGDSGSPLVCNGLIHGIASFVRGGCASGLYPDAFAPVAQFVNWIDSIIQ
- in vitro cleavage (mass spectrometry of fragments): two peptides with unique amino acid sequences released from HNE-mediated cleavage of CC16 in vitro
